For experiment [1], the target named is T1, SARS-CoV-2 S protein RBD domain (wild type) (SARS-CoV-2, UniProt P0DTC2). Briefly: SPR. The following applies: both partners purified.
Experiment [2] deals with T1, SARS-CoV-2 S protein RBD domain (wild …). Briefly: ELISA. The following applies: both partners purified.

Positions count from the first letter of the chain named.

The term Kd denotes the constant that tells how readily two partners part at equilibrium.

B1: R3P2-A2 mAb (antibody, V domains shown)
VH: QVQLVQSGGGLIQPGGSLRLSCAASGVTVSSNYMSWVRQAPGRGLEWVSLIYPGGSTYYADSVKGRFTISRDNSRNTLYLQMNSLRAEDTAVYYCARDLSEKGGMDVWGQGTMVTVSS
VL: EIVMTQSPSVLPLFPGESGSLSCRASQNVGDFLAWYQHKPGQAPKLLIYGATNRPTGIPDRFSGTGSGTDFTLTISRMEPEDFAVYFCQQYGTSPPITFGPGTKVDIK
The molecule B1 showed a dissociation constant (Kd) in experiment [1] of 2.32 nM.

B2: R3P2-G1 mAb (antibody, V domains shown)
VH: B1 VH with M113T
VL: QAVLTQPPSVSVAPGKTARITCGGNHIGSKSVNWYQQKSGQAPVLVIYSDSDRPSGIPARFSGSNSGDTATLTISRVEAGDEADYYCQVWDNRSDHWVFGGGTQLTVL
Turning to B2, the binding result in experiment [2] was “binds”.

B3: R3P1-E4 mAb (antibody, V domains shown)
VH: B1 VH with M113T
VL: DIVMTQSPSSLSASVGDRVTITCRASQGISSYLAWYQQKPGKAPKLLIYAASTLQSGVPSRFSGSGSGTDFTLTISSLQPEDFATYYCQQLNSYPRFGPGTKVEIK
Regarding B3, the Kd in experiment [1] came out at 0.82 nM.

B4: R3P2-B5 mAb (antibody, V domains shown)
VH: B1 VH with M113L
VL: EIVMTQSPGTLSLSPGERVTLSCRTSQSVSRFFSWYQQKPGQAPRLLIHTASTRATDIPDRFSASGSGTDFTLTISRLEPEDSAMYYCQHYGASPYTFGQGTKVDIK
Consider B4, for which, in experiment [2], the binding result is listed as “binds”.

B5: CB6 mAb (antibody, V domains shown)
VH: EVQLVESGGGLVQPGGSLRLSCAASGFTVSSNYMSWVRQAPGKGLEWVSVIYSGGSTFYADSVKGRFTISRDNSMNTLFLQMNSLRAEDTAVYYCARVLPMYGDYLDYWGQGTLVTVSS
VL: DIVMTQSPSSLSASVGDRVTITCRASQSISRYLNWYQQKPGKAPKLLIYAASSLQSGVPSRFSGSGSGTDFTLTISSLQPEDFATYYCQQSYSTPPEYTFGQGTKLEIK
As for B5, the binding result in experiment [2] is “binds”.

B6: REGN10933 mAb (antibody, V domains shown)
VH: QVQLVESGGGLVKPGGSLRLSCAASGFTFSDYYMSWIRQAPGKGLEWVSYITYSGSTIYYADSVKGRFTISRDNAKSSLYLQMNSLRAEDTAVYYCARDRGTTMVPFDYWGQGTLVTVSS
VL: DIQMTQSPSSLSASVGDRVTITCQASQDITNYLNWYQQKPGKAPKLLIYAASNLETGVPSRFSGSGSGTDFTFTISGLQPEDIATYYCQQYDNLPLTFGGGTKVEIK
As for B6, the binding result in experiment [2] is reported as “binds”.

The values are drawn from paper PMC9113379 (Cell & Bioscience, 2022).
